Measurements taken from a protein production outcome set (Wang et al. 2014).

Test: label from the status in PepcDB records

Row | Sequence | protein production
1 | SLSPAELHADSIVIDGLIIAKWNRELFEDMRKGGLTAANCTVSVWEGFQATVNNIVASNKLIRDNSDLVIPVRSTADIRKAKEQGKTGILYGFQNAHAFEDQIGYVEVFKQLGVGIVQMCYNTQNLVGTGCYERDGGLSGFGREIVAEMNRVGIMCDLSHVGSKTSEEVILESKKPVCYSHCLPSGLKEHPRNKSDEELKFIADHGGFVGVTMFAPFLKKGIDSTIDDYAEAIEYVMNIVGEDAIGIGTDFTQGHGHDFFEWLTHDKGYARRLTNFGKIVNPLGIRTVGEFPNLTETLLKRGMPERVVRKVMGENWVRVLRDVWGE | not failed
2 | MASKSQKKVLKKQNKKKKKDPLAPKRALSAYMFYVKDKRLEIIKEKPELAKDVAQVGKLIGEAWGQLSPAQKAPYEKKAQLDKVRYSKEIEEYRKKNQE | failed
3 | MKNIVAGILAHVDSGKTTLSEAMLYQTGRIRKLGRVDHQDTYLDTDSQEKDRGITIFSKQAELTYEDMHIALLDTPGHVDFGTEMERTLQVLDYAVLVINGMDGVQSHTETLWKLLERYEIPVFIFVNKMDMTGYDREYLMDNIRHRLSDGCVDFLCEDAGEHIAMCDENMLERFLETGENREDDIAKAVADRKLFPCYFGSALKNDGVAELLDGMNRYVTEPRRTDEFGARVFKIGRDDKGERLTYMKITGGTLRLKDVLTLTGRQGEETLEKVNQIRVYSGAKYDMVDHVTAGCVCAVPGLVNTYGRQGIGACPDGELPSLEPVLSYKVMYPTDVDAVTMVSKLRQLEEEDPLLQVQWNEAAGEIYIKVMGQVQLEVVAQMVRDRFGIAITYGQGRITYKETIAAPVMGVGHFEPLRHYAEVHLLLEPMENGSGMCFDSICSEDVLDKNWQRLILTHLQEREFRGVLTGSPITDMKITITAGRAHQKHTEGGDFRQATYRAVRQGLMMAESVLLEPVYAFKIEVPQEYAGRVLADIVKMSGSMDGQEIAGETTVITGHAPVYTMREYYSELTAFSRGTGRLQVDIDGYQPCHNTEEVLAERHYDPELDRFNPSSSVFCAHGAGYLVDWYDVYENMHVKEDPGFEISGQLGYTEDGDVTDIPVNRPGKSVSDMSITDEELSEIFARTFGGDYKDKDVALNGRFRRTTSEYKVNGTSSRGSDGTAGGGASAGTAGDSSNSGYRGNGQYNKSQSRDRQPGNGPVVGSRPADRGIATPGAFKRRKSGEDYVIVDGYNVIFAWDTLRELSEHNIDSARGKLMDILSNYQGYMNCHLIVVFDGYKVKDNKGERFPYDDIEVVYTKEGETADAHIEKLTHELARKHKVTVVTSDGLEQIVTMGQGAIRMSSRDFKLEVERVNEHLRENYLKND | failed
4 | GLDTGALDQQQNNNGRESIRTVNVSVNNAVTKIVSNMSPAVVGVVNIQKSDIWGESGEAGSGSGVIYKKNDHSAYVVTNHHVIEGASQIEISLKDGSRVSADLVGSDQLMDLAVLRVKSDKIKAVADFGNSDKVKSGEPVIAIGNPLGLEFAGSVTQGVISGTERAIPVDSNGDGQPDWNAEVLQTDAAINPGNSGGALLNMDGKVIGINSMKIAESAVEGIGLSIPSKLVIPVIEDLERYGKVKRPFLGIEMKSLSDIASYHWDETLKLPKNVTNGAVVMGVDAFSPAGKAGLKELDVITEFDGYKVNDIVDLRKRLYQKKVGDRVKVKFYRGGKEKSVDIKLSSA | failed
5 | MESSFSFGVILAVLASLIIATNTLVAVAVLLLIHKNDGVSLCFTLNLAVADTLIGVAISGLLTDQLSSPSRPTQKTLCSLRMAFVTSSAAASVLTVMLITFDRYLAIKQPFRYLKIMSGFVAGACIAGLWLVSYLIGFLPLGIPMFQQTAYKGQCSFFAVFHPHFVLTLSCVGFFPAMLLFVFFYCDMLKIASMHSQQIRKMEHAGAMAGGYRSPRTPSDFKALRTVSVLIGSFALSWTPFLITGIVQVACQECHLYLVLERYLWLLGVGNSLLNPLIYAYWQKEVRLQLYHMALGVKKVLTSFLLFLSARNCGPERPRESSCHIVTISSSEFDG | failed
6 | MNTPQFNKIAVLVATLLISALFLTMIRQFLVTILLAGIFTGLAYPLFSRFITLTRGHRSLSASMTLVIFFMMVFLPLLAVFTVVILQAVSLSSTAIPLIREQLRDPEGFLRMLSSLPFYKDIESYSDLILEKAAEILGNLGSSVLSSFSAITWTAIYDLVLFIIFWYTMFFLLRDGHELLERIKYYLPLNESDQRRLFDRFVSVTRASLKGSLIIAVIQGTLAGLAFYVAGINQAVFWGAIMAMLSLLPLIGSPIIWVPAVIILALSGNYAQAIGLFLFCSIIVGQIDNVLRPILVGRDTSMHELFIFFGTLGGIGMFGLPGFIIGPVVAALFVTVWDIYGETFNESLIERRSGGGQAAGSDGSAP | failed
7 | MDHRASRTGLFILGLCFVLSLLGRGLGESFTVFLLPISGSFGWDRAEVVSIYSLTALCTGLASPLVGRLFDRSGPRVVYTLGMTLLGGALLIAAYAERLWQLQLTVGLCVGLGIAFTGNVPNSILLGRWFGARLPTAMAVVYSAIGAGVLVMLPIAQLLIDRYGWREAYLILGGAMLILLVPLSLMPWRRFAAGADAHAQRPAQDADEDGWTLGSAMRHHAFWALFATFFFTAIGMYSISAQVVAYLVDAGFTPLQAATAWGFSGVVLVVGMLGVSWLDGVIGRRPSILFSYAISITGLVLLWLLQWYPNLLLLGGFVICFGSMIGSRGPLITATAMSIFRGRRVGTIYGTISIGSGLGSAFGSWCGGLLHDLTQSYNPVLGFALVSVVLGMIPFLVVPALRERQ | failed
8 | MAVWLKLSLIVLCGCLSCWVGSVWAQPPLPGFAALSAGQYPLADRQLSQAIAHGKATAALYGNRCWVRLSLERYEEAIKDCSVALDLQPHEPETWLNRGLAYYRQGQSQAAIADFDQLLQQSPTDYRAYYNRGLAYLDLAQPEQAIADFQQALERLPATEIGAAVDLHTDRCMGELHRAQPGPAVSACSQALELQPSAARARYLRALAYWQLHQPQAAIADLRQACDAFAQAGATVQLDRARQLLQHWQQQSSLVAQAPRLQSKNWPGAVTYAMDLANCHDRSPLNELEFCCDRAFQQC | failed
9 | MATRPKTIWESFLSPVVRFLMDEDKWRRYAQSIDWEKESDRFRRTDVIIPSYYTSQNFHGIEGGYLNSSAAVTYDPITEYVLPPNETLVRQALIDGVKVQPRRILDLGCGTGSTTLMLKQAFPQADVIGLDLSPYMLVRAEDKARTADLDISWRHGNAEKTSFPNASFDLVTTSLLFHETPVEVSQTILQECFRLLVAGGQVIILDGNQKSLRQLNWLNDIFEEPYIREYAADNLDARMGAAGFVGVQTEDLWLIHQVTSGIKPILATDTNQIKDRQYMPAIDNNNLEGLESPAFGIVALEHHHHHH | failed
10 | MPNFKSKKIKEINLPYSKDDVEFLWLAKNDNVSLIYTKVQEESFFLQIKKAQNGFVIKGDKHTKPSKIGYLQKALKIFKEGFCEDIINEAFGLKNNALIEKTPFIVDNFDELLSRLQGKIYIEIGFGSGRHLLYQAKENPNVLILGVEIYNPALTQVAKLAKAQNVNNILLIQSDARLLLSVLKSKSVEKIFLHFPVPWDKKPHRRVIGKDFCKECARVLVQNGRFELRTDSFEYFNFTLEQFLTFPAPKFSLRKNENLEISSKYEDRWKKQEKNIYDLWVWNFNQECKNYELNEFNLSSVEFSKEDLKKIEQNFKNITIKKDDFFLHFESIYKQDENLLLKVAFGAFNKPEHCYLHLDKTIDFAFKEPFKIQENIKAINELKEILKVQFKI | failed
11 | GPLGSMIVFVRFNSSHGFPVEVDSDTSIFQLKEVVAKRQGVPADQLRVIFAGKELRNDWTVQNCDLDQQSIVHIVQRPWRK | not failed
12 | MDIFQLQGLFLVLSAILGYFLHNRLSVRIVSFVNNWINLPLIFLVTYLQRGFEVSDAKIFLTSVIYNFLMFVIVLYLTREIEPFSRGSVLINSIFMNTINLPFSILLAFRGNYEISATVAVAMATLRLPIVMIIFTYLNKGISVIHNTTNNSIIRTNLSRYLPVITFLIGGSLHYVVGSVINVDIVNTINLILILIVLYEFGYQIRRVIGEMRIKDVTSKPYMIIYISRILISPILIFLILISLGITSKIIIEQVMVTAIMAPAITNVVWARVYGFGTEIIVKSTLILTPISTIIAIIFLILY | failed
13 | MRTKNILAALALFLGISLPSLVEAANAYATGNVNVRTGPGTRYPRTGTIPAGATLTIRGCLNGYSWCEVIFAGQSGWASSNYLQATYQNRRRPVIHIGPVIGLPVIVHKPRPPHWEHRPRPPRPPHWGHRPRPPHWDHRPRPPRPQPRLEHHHHHH | not failed
14 | NITPLKEVQLALAEREAMMQALFDQASQFTALLTPTGKVVKVNQRALDFAGITVDEIVDQDFWETPWWQASEQLKADLKSAIHQAAQGILIRYDVENLGNNGQKVILDFSIRPIYDTDQRIIFLLCEGRDITDKFRIQEALAESEERFRQTFQTTAVSSALISLD | failed
